Legend:
Experiment in all cases: SPR
TopA CTD = TopA CTD (Streptomyces coelicolor, UniProt Q9X909 610-952)
TopA wild type = TopA wild type (Streptomyces coelicolor, UniProt Q9X909 1-952)
CTDΔED = CTDΔED (Streptomyces coelicolor, UniProt Q9X909 610-950, del951-952)
TopA881 = TopA881 (Streptomyces coelicolor, UniProt Q9X909 1-881, del882-952)

Measured: binding result

B1: sstopA-biot 120 nt ssDNA (63% GC) (ssDNA)
DNA: not shown
binds: all assays above

Reference: paper PMC5714199
